Results on 4 molecules are retold here after US20050186203A1 (published 2005).

For assay [1], the target named is T1, purified full-length human IGF-I receptor (affinity purified); directly coated or biotinylated and captured on … (human, UniProt P08069 31-1367, biotinylated with PEO-maleimide-biotin reagent in the captured format).
T1 construct: mature; also called purified human IGF-I receptor; biotinylated human IGF-I receptor
Description: ELISA binding competition with murine EM164 on full-length IGF-I receptor. The protocol:
(§1) After equilibration, the bound humanized antibody was detected using a goat-anti-human-Fab′₂-antibody-horseradish peroxidase conjugate. Plots of ([bound murine Ab]/[bound humanized Ab]) vs ([murine Ab]/[humanized Ab]), which theoretically yield a straight line with slope=(K_{d humanized Ab}/K_{d murine Ab}), were used to determine the relative affinities of the humanized and murine antibodies.
(§2) An Immulon-2HB ELISA plate was coated with 100 μL of 5 μg/mL streptavidin per well in carbonate buffer at ambient temperature for 7 h. […] The wells were then washed with TBS-T buffer and incubated with goat-anti-human-Fab′₂-antibody-horseradish peroxidase conjugate for 1 h (100 μL; 1 μg/mL in blocking buffer), followed by washes and detection using ABTS/H₂O₂ substrate at 405 nm.
(ELISA stands for enzyme-linked immunosorbent assay.)

Assay [2] has as its target IGF-I receptor of 3T3 cells (mouse) (mouse, UniProt Q60751 31-1373). Description: immunoprecipitation from cell lysate, Western blot. In general terms: Immunoblotting shows a protein as a band on a membrane.
Assay [3] concerns the target T2, human insulin receptor, overexpressed on 3T3-like cells of IGF-I receptor deficient mice (human, UniProt P06213 28-1382).
T2 construct: whole, on cells; also called insulin receptor overexpressing cells
The experiment in a line: FACS on cells overexpressing human insulin receptor. The protocol:
The cells were pelleted by centrifugation and washed with cold FACS buffer by gentle flicking, followed by incubation with goat-anti-mouse-IgG-antibody-FITC conjugate (100 μL; 10 μg/mL in FACS buffer) on ice for 1 h. The cells were pelleted, washed, and resuspended in 120 μL of 1% formaldehyde solution in PBS. The plate was analyzed using a FACSCalibur reader (BD Biosciences).

Assay [4] addresses T1, purified full-length human IGF-I …. Description: ELISA binding competition with murine EM164 on captured biotinylated IGF-I receptor. On the procedure:
as §1, §2

Chain of IGF-I receptor of 3T3 cells (mouse) (Q60751 31-1373 limits assumed): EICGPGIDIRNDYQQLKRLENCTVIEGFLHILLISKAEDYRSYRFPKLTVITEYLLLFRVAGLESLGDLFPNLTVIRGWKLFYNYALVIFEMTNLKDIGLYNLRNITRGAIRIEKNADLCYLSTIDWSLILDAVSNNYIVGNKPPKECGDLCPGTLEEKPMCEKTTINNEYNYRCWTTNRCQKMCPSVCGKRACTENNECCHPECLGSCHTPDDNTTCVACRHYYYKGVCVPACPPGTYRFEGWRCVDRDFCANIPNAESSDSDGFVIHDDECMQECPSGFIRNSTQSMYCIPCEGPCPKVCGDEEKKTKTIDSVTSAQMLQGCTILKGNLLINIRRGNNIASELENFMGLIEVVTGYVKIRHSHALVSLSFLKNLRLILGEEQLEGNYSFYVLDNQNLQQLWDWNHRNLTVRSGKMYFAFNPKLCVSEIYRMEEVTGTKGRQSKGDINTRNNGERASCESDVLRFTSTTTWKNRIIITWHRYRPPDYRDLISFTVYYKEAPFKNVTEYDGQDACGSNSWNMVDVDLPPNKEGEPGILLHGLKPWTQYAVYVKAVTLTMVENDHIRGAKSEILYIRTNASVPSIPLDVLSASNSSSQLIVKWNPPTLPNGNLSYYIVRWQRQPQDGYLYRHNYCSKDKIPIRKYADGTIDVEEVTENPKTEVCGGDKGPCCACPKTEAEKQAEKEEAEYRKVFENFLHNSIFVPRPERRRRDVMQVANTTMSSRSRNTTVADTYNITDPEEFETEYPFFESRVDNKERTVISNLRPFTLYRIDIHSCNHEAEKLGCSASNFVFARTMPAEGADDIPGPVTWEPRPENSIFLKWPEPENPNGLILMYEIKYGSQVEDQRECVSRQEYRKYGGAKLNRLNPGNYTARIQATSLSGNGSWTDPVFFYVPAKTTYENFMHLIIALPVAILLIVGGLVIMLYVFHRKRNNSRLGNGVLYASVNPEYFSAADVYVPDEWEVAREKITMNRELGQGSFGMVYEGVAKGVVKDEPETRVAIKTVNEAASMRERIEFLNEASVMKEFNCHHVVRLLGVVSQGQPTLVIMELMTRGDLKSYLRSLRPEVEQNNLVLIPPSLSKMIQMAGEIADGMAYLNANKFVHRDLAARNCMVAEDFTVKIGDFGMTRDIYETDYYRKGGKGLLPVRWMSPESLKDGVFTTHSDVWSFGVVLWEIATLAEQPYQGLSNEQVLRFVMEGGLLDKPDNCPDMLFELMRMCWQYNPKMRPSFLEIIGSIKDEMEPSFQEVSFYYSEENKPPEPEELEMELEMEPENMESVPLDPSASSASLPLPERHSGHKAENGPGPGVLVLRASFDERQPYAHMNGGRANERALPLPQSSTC

B1: humanized EM164 antibody version 1.1 (antibody, V domains shown)
VH: QVQLVQSGAEVVKPGASVKLSCKASGYTFTSYWMHWVKQRPGQGLEWIGEINPSNGRTNYNQKFQGKATLTVDKSSSTAYMQLSSLTSEDSAVYYFARGRPDYYGSSKWYFDVWGQGTTVTVS
VL: DVLMTQTPLSLPVSLGDPASISCRSSQSIVHSNVNTYLEWYLQKPGQSPKLLIYKVSNRFSGVPDRFSGSGAGTDFTLRISRVEAEDLGIYYCFQGSHVPPTFGGGTKLEIKR
notes: Expressed transiently in 293T cells; also called huEM164 V1.1; v1.1
In the case of B1, in assay [1], the binding result is given as “binds”.

B2: murine anti-IGF-I receptor antibody EM164 (antibody, V domains shown)
VH: QVQLQQSGAELVKPGASVKLSCKASGYTFTSYWMHWVKQRPGQGLEWIGEINPSNGRTNYNEKFKRKATLTVDKSSSTAYMQLSSLTSEDSAVYYFARGRPDYYGSSKWYFDVWGAGTTVTVS
VL: DVLMTQTPLSLPVSLGDQASISCRSSQSIVHSNVNTYLEWYLQKPGQSPKLLIYKVSNRFSGVPDRFSGSGSGTDFTLRISRVEAEDLGIYYCFQGSHVPPTFGGGTKLEIKR
notes: also called EM164 antibody; muEM164
For B2, the binding result is given as “no binding” in assay [2] and “no binding (tested: 50-100 nM)” in assay [3].

B3: humanized EM164 antibody version 1.0 (antibody, V domains shown)
VH: QVQLVQSGAEVVKPGASVKLSCKASGYTFTSYWMHWVKQRPGQGLEWIGEINPSNGRTNYNQKFQGKATLTVDKSSSTAYMQLSSLTSEDSAVYYFARGRPDYYGSSKWYFDVWGQGTTVTVS
VL: DVVMTQTPLSLPVSLGDPASISCRSSQSIVHSNVNTYLEWYLQKPGQSPRLLIYKVSNRFSGVPDRFSGSGAGTDFTLRISRVEAEDLGIYYCFQGSHVPPTFGGGTKLEIKR
notes: Expressed transiently in 293T cells; also called huEM164 V1.0; huEM164 v1.0
B3: in assay [4], the binding result is “binds”.

B4: humanized EM164 antibody version 1.2 (antibody, V domains shown)
VH: QVQLVQSGAEVVKPGASVKLSCKASGYTFTSYWMHWVKQRPGQGLEWIGEINPSNGRTNYNQKFQGKATLTVDKSSSTAYMQLSSLTSEDSAVYYFARGRPDYYGSSKWYFDVWGQGTTVTVS
VL: DVLMTQTPLSLPVSLGDPASISCRSSQSIVHSNVNTYLEWYLQKPGQSPRLLIYKVSNRFSGVPDRFSGSGAGTDFTLRISRVEAEDLGIYYCFQGSHVPPTFGGGTKLEIKR
notes: Expressed transiently in 293T cells; also called huEM164 V1.2; v1.2
For the molecule B4, the binding result in assay [1] was “binds”.
